Measurements taken from paper PMC12670495 (Molecular Pharmaceutics, 2025).
Each block holds one binder with its values, some of them ahead of it.

Columns and labels:
Settings in all cases: both partners purified
[1] = target: T1, Prostate-specific membrane antigen (PSMA), human (Homo sapiens, UniProt Q04609); assay: SPR; Biacore T200, multicycle kinetics; antibody captured on a Protein G chip (~50 RU), PSMA as analyte 25 to 1.5625 nM in HBS-EP+, 35 μL/min, association 600 s, dissociation 2400 s; 1-to-1 binding model with global Rmax
T1 construct: human FOLH1 (PSMA), UniProt Q04609; The methods of the multicycle SPR say only 'PSMA (R&D Systems)'; R&D Systems' recombinant human PSMA is, as far as recalled, the extracellular domain (about K44-A750) with a His tag; also called Human FOLH1; human PSMA; source: bought: R&D Systems (multicycle SPR)

[2] = target: T2, mouse PSMA (Mus musculus, UniProt O35409); assay: SPR; Biacore T200, single-cycle kinetics at 25 °C; DOTA-conjugated antibodies captured on a Protein G chip (~50 RU), PSMA as analyte 12.5 to 50 nM in HBS-EP+, 40 μL/min; Langmuir (1:1) model
T2 construct: PSMA (Folh1) of mouse; also called murine PSMA
T2 sequence (O35409 whole entry): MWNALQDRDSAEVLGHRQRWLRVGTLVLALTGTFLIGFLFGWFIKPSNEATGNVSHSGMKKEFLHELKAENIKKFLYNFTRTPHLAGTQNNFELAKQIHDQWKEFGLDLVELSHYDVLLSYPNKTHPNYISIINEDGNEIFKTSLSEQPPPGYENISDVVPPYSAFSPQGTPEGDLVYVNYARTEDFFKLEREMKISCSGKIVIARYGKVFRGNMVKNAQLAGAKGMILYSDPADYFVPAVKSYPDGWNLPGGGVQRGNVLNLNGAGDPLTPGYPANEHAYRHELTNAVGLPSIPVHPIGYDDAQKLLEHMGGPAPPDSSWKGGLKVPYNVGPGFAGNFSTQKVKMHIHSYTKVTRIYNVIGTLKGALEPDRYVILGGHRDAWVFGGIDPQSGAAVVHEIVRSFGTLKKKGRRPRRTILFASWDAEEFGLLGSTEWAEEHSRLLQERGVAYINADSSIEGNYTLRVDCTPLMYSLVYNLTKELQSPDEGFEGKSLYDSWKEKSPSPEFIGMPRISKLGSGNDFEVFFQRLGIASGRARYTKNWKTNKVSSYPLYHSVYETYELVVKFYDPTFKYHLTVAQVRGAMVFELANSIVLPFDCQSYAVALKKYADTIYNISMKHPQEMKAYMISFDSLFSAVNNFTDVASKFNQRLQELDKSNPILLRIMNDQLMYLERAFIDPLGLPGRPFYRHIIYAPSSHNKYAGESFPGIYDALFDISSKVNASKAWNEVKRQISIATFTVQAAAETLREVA

[3] = target: T3, mouse PSMA (Mus musculus, UniProt O35409); assay: SPR; Biacore T200, single-cycle kinetics, 25 °C, HBS-EP+; antibody-DOTA captured on a Protein G chip (~50 RU); PSMA as analyte, three-point 2-fold dilution 12.5-50 nM, 40 uL/min; association 200 s, dissociation 1500 s; Langmuir 1:1 fit
T3 construct: mouse prostate-specific membrane antigen (PSMA), purified protein; also called PSMA (Mouse); murine PSMA
T3 sequence (O35409 whole entry): as above

Kd [1]: 0.734 nM
koff [1]: 7.88e-05 s⁻¹
kon [1]: 107000 M⁻¹ s⁻¹
B1: ANT4044 IgG1 (antibody, V domains shown)
VH: EVQLVQSGAEVKKPGASVKVSCKASGYTFTEYTIHWVRQAPGKGLEWIGNINPNNGGTTYNQKFEDRVTITVDKSTSTAYMELSSLRSEDTAVYYCAAGWNFDYWGQGTTVTVSS
VL: DIQMTQSPSTLSASVGDRVTITCKASQDVGTAVDWYQQKPGQAPKLLIYWASTRHTGVPDRFSGSGSGTDFTLTISRLQPEDFAVYYCQQYNSYPLTFGQGTKVDIK
notes: VH of the humanized antibody ANT4044 (derived from murine J591); IgG1 heavy chain constant region, unmodified; VK of the humanized antibody ANT4044; constant region of the light chain is not described; IgG1; also called unmodified IgG1; ANT4044 unmodified IgG1 construct; source: CHO cells, transiently transfected; purified (Protein A, preparative SEC); copies: 2 + 2

Kd [1]: 0.743 nM
koff [1]: 0.000104 s⁻¹
kon [1]: 139000 M⁻¹ s⁻¹
B2: ANT4044 IgG4 (S228P, L235E, H310A, H435Q) (antibody, V domains shown)
VH: B1 VH
VL: B1 VL
notes: VH of ANT4044, as the heavy chain of m1; IgG4 heavy chain constant region with S228P, L235E, H310A and H435Q; VK of ANT4044, as the light chain of m1; constant region of the light chain is not described, as the light chain of m1; IgG4; also called modified IgG4; source: CHO cells, transiently transfected; purified (Protein G, preparative SEC); copies: 2 + 2

B3: ANT4044-DOTA (antibody, V domains shown)
VH: B1 VH
VL: B1 VL
notes: VH of ANT4044, as the heavy chain of m1; VK of ANT4044, as the light chain of m1; constant region of the light chain is not described, as the light chain of m1; source: CHO cells, transiently transfected, purified; conjugated with NHS-DOTA; copies: 2 + 2
binding result [2]: no binding (tested: 12.5 to 50 nM tested)

binding result [3]: no binding (tested: 12.5 to 50 nM)
B4: ANT4044-DOTA (antibody, V domains shown)
VH: B1 VH
VL: B1 VL

Kd [1]: 0.737 nM
koff [1]: 7.48e-05 s⁻¹
kon [1]: 101000 M⁻¹ s⁻¹
B5: ANT4044 IgG1 (H310A, H435Q) (antibody, V domains shown)
VH: B1 VH
VL: B1 VL
notes: VH of ANT4044, as the heavy chain of m1; IgG1 heavy chain constant region with H310A and H435Q; VK of ANT4044, as the light chain of m1; constant region of the light chain is not described, as the light chain of m1; IgG1; Lead construct; the introduction names 'this engineered PSMA antibody' TLX592 without saying which variant is meant; also called modified IgG1 (H310A, H435Q); PK-modified …
